Paper PMC7417555, “Comparative structural analyses and nucleotide-binding characterization of the four KH domains of FUBP1”

Legend:
FUBP1 KH4 [1] = target: T1, FUBP1 KH4 (UniProt Q96AE4 376-443); assay: EMSA; ITC: 25 mM HEPES pH 7.5, 50 mM NaCl (150 mM for tandem and KH1-4), 0.5 mM TCEP, 20 C; native PAGE: 200 uM protein, 5x ssDNA, 25 mM HEPES pH 7.5, 50 mM NaCl, 0.5 mM TCEP, 4 C, 0.5x TBE (KH4 0.5x TAE); details: protein: recombinant; tags: N-terminal His6 kept in native PAGE; removed by TEV in general protocol
T1 sequence (Q96AE4 376-443): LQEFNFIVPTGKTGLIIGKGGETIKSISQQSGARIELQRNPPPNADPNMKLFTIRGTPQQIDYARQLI

FUBP1 KH2 [2] = target: T2, FUBP1 KH2 (UniProt Q96AE4 185-251); assay: as above; details: protein: recombinant; tags: His6 removed by TEV
T2 sequence (Q96AE4 185-251): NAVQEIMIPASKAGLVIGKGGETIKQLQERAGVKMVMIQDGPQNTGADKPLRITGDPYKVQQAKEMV

FUBP1 KH2 [3] = target: T2, FUBP1 KH2; assay: ITC; 50 mM NaCl; preferred over fragment 8; ITC: 25 mM HEPES pH 7.5, 50 mM NaCl (150 mM for tandem and KH1-4), 0.5 mM TCEP, 20 C; native PAGE: 200 uM protein, 5x ssDNA, 25 mM HEPES pH 7.5, 50 mM NaCl, 0.5 mM TCEP, 4 C, 0.5x TBE (KH4 0.5x TAE); details: protein: recombinant; tags: His6 removed by TEV
FUBP1 KH4 [4] = target: T1, FUBP1 KH4; assay: ITC; 50 mM NaCl; no preference between fragments 7 and 8; ITC: 25 mM HEPES pH 7.5, 50 mM NaCl (150 mM for tandem and KH1-4), 0.5 mM TCEP, 20 C; native PAGE: 200 uM protein, 5x ssDNA, 25 mM HEPES pH 7.5, 50 mM NaCl, 0.5 mM TCEP, 4 C, 0.5x TBE (KH4 0.5x TAE); details: protein: recombinant; tags: N-terminal His6 kept in native PAGE; removed by TEV in general protocol
FUBP1 KH3 [5] = target: T3, FUBP1 KH3 (UniProt Q96AE4 275-339); assay: EMSA; ITC: 25 mM HEPES pH 7.5, 50 mM NaCl (150 mM for tandem and KH1-4), 0.5 mM TCEP, 20 C; native PAGE: 200 uM protein, 5x ssDNA, 25 mM HEPES pH 7.5, 50 mM NaCl, 0.5 mM TCEP, 4 C, 0.5x TBE (KH4 0.5x TAE); details: protein: recombinant; tags: His6 removed by TEV
T3 sequence (Q96AE4 275-339): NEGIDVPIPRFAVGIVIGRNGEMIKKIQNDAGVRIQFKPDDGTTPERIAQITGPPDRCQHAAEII

FUBP1 KH1 [6] = target: T4, FUBP1 KH1 (UniProt Q96AE4 100-164); assay: as above; details: protein: recombinant; tags: His6 removed by TEV
T4 sequence (Q96AE4 100-164): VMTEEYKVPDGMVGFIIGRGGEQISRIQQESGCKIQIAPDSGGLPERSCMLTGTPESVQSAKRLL

FUBP1 KH2-3 = FUBP1 KH2-3 (UniProt Q96AE4 185-339); assay: ITC; 150 mM NaCl; range given for the three tandems; ITC: 25 mM HEPES pH 7.5, 50 mM NaCl (150 mM for tandem and KH1-4), 0.5 mM TCEP, 20 C; native PAGE: 200 uM protein, 5x ssDNA, 25 mM HEPES pH 7.5, 50 mM NaCl, 0.5 mM TCEP, 4 C, 0.5x TBE (KH4 0.5x TAE); details: protein: recombinant; tags: His6 removed by TEV
Sequence of FUBP1 KH2-3 (Q96AE4 185-339): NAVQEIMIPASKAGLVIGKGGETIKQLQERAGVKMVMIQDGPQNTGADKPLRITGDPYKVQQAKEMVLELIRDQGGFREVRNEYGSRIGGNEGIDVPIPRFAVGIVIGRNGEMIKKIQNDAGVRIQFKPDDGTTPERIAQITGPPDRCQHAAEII

FUBP1 KH3-4 = FUBP1 KH3-4 (UniProt Q96AE4 275-443); assay: as above; details: protein: recombinant; tags: His6 removed by TEV
Sequence of FUBP1 KH3-4 (Q96AE4 275-443): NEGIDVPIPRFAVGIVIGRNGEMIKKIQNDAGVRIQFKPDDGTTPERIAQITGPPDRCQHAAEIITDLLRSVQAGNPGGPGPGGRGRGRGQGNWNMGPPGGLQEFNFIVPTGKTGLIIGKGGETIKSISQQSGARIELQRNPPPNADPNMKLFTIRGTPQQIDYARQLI

FUBP1 KH1-2 = FUBP1 KH1-2 (UniProt Q96AE4 100-251); assay: as above; details: protein: recombinant; tags: His6 removed by TEV
Sequence of FUBP1 KH1-2 (Q96AE4 100-251): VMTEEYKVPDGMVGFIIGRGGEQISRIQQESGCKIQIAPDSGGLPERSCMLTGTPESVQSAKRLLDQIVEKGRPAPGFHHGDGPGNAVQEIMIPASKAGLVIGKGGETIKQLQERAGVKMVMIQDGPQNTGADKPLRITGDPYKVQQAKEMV

FUBP1 KH1-4 = FUBP1 KH1-4 (UniProt Q96AE4 100-443); assay: ITC; 150 mM NaCl; ITC: 25 mM HEPES pH 7.5, 50 mM NaCl (150 mM for tandem and KH1-4), 0.5 mM TCEP, 20 C; native PAGE: 200 uM protein, 5x ssDNA, 25 mM HEPES pH 7.5, 50 mM NaCl, 0.5 mM TCEP, 4 C, 0.5x TBE (KH4 0.5x TAE); details: protein: recombinant; tags: His6 removed by TEV
Sequence of FUBP1 KH1-4 (Q96AE4 100-443): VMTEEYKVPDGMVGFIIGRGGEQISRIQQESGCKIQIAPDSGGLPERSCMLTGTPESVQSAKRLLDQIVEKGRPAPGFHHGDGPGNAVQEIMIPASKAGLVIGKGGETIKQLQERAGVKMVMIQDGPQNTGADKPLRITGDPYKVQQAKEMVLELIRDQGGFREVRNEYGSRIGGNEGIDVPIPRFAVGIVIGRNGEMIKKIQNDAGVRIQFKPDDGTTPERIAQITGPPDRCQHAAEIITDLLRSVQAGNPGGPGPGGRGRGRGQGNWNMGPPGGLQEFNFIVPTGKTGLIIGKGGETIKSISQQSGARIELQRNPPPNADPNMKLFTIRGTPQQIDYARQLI

FUBP1 KH4 [7] = target: T1, FUBP1 KH4; assay: ITC; 50 mM NaCl; Kd only in Fig 3C; ITC: 25 mM HEPES pH 7.5, 50 mM NaCl (150 mM for tandem and KH1-4), 0.5 mM TCEP, 20 C; native PAGE: 200 uM protein, 5x ssDNA, 25 mM HEPES pH 7.5, 50 mM NaCl, 0.5 mM TCEP, 4 C, 0.5x TBE (KH4 0.5x TAE); details: protein: recombinant; tags: N-terminal His6 kept in native PAGE; removed by TEV in general protocol
FUBP1 KH1 [8] = target: T4, FUBP1 KH1; assay: as above; details: protein: recombinant; tags: His6 removed by TEV
FUBP1 KH2 [9] = target: T2, FUBP1 KH2; assay: as above; details: protein: recombinant; tags: His6 removed by TEV
FUBP1 KH3 [10] = target: T3, FUBP1 KH3; assay: ITC; 50 mM NaCl; ITC: 25 mM HEPES pH 7.5, 50 mM NaCl (150 mM for tandem and KH1-4), 0.5 mM TCEP, 20 C; native PAGE: 200 uM protein, 5x ssDNA, 25 mM HEPES pH 7.5, 50 mM NaCl, 0.5 mM TCEP, 4 C, 0.5x TBE (KH4 0.5x TAE); details: protein: recombinant; tags: His6 removed by TEV

TTCCACGGAA (ssDNA) [FUSE fragment 10, 10-mer]
binding result (FUBP1 KH4 [1]): no binding
binding result (FUBP1 KH2 [2]): no binding

TATTTTGT (ssDNA) [FUSE fragment 7, 8-mer (ITC)]
binding result (FUBP1 KH2 [3]): binds
binding result (FUBP1 KH4 [4]): binds

CCCTCGGGAA (ssDNA) [FUSE fragment 4, 10-mer]
binding result (FUBP1 KH4 [1]): no binding
binding result (FUBP1 KH2 [2]): no binding

TTTGTGTTAA (ssDNA) [FUSE fragment 8, 10-mer (native PAGE)]
binding result (FUBP1 KH3 [5]): binds
binding result (FUBP1 KH1 [6]): binds

ATGTATATTCCCTCGGGATTTTTTATTTTGTGTTATTCCACGGCATG (ssDNA) [47-mer c-Myc FUSE]
Kd (FUBP1 KH2-3): ~5.29 µM
Kd (FUBP1 KH3-4): ~5.29 µM
Kd (FUBP1 KH1-2): ~5.29 µM
Kd (FUBP1 KH1-4): ~85 nM

TTGTGTTA (ssDNA) [FUSE fragment 8, 8-mer (ITC)]
binding signal (FUBP1 KH4 [7]): > 5 fold weaker than KH3 (at least)
binding signal (FUBP1 KH1 [8]): > 5 fold weaker than KH3 (at least)
binding signal (FUBP1 KH2 [9]): > 5 fold weaker than KH3 (at least)
Kd (FUBP1 KH3 [10]): 17 µM
